Experimental data: patent publication US20070243194A1 (Biogen, published 2007)

B1: M14-G11.G4.P (antibody, V domains shown)
VH: EVQLLESGGGLVQPGGSLRLSCAASGFTFSNYPMYWVRQAPGKGLEWVSRISSSGGRTVYADSVKGRFTISRDNSKNTLYLQMNSLRAEDTAVYYCARDRWSRSAAEYGLGGYWGQGTLVTVSS
VL: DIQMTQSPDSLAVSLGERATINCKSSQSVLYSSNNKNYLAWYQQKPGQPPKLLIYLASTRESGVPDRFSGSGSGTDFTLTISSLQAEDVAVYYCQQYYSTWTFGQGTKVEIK
B2: M13-C06.G4.P.agly (antibody, human IgG4 S228P, kappa, V domains shown)
VH: EVQLLESGGGLVQPGGSLRLSCAASGFTFSIYRMQWVRQAPGKGLEWVSGISPSGGTTWYADSVKGRFTISRDNSKNTLYLQMNSLRAEDTAVYYCARWSGGSGYAFDIWGQGTMVTVSS
VL: DIQMTQSPLSLSASVGDRVTITCQASRDIRNYLNWYQQKPGKAPKLLIYDASSLQTGVPSRFGGSGSGTDFSFTIGSLQPEDIATYYCQQFDSLPHTFGQGTKLEIKR
B3: M14-C03.G4.P.agly (antibody, human IgG4 S228P, kappa, V domains shown)
VH: EVQLLESGGGLVQPGGSLRLSCAASGFTFSKYMMSWVRQAPGKGLEWVSYISPSGGLTWYADSVKGRFTISRDNSKNTLYLQMNSLRAEDTAVYYCARDGARGYGMDVWGQGTTVTVSS
VL: DIQMTQSPATLSLSPGERATLSCRASQSVSSYLAWYQQKPGQAPRLLIYDASNRATGIPARFSGSGSGTDFTLTISSLEPEDFAVYYCQQRSNWPPEVTFGPGTKVDIKR

target: human IGF-1R on cells (human, UniProt P08069 31-740; P08069 741-1367); assay: cell-based or functional assay
Sequence (P08069 31-740, chain 1 of 2): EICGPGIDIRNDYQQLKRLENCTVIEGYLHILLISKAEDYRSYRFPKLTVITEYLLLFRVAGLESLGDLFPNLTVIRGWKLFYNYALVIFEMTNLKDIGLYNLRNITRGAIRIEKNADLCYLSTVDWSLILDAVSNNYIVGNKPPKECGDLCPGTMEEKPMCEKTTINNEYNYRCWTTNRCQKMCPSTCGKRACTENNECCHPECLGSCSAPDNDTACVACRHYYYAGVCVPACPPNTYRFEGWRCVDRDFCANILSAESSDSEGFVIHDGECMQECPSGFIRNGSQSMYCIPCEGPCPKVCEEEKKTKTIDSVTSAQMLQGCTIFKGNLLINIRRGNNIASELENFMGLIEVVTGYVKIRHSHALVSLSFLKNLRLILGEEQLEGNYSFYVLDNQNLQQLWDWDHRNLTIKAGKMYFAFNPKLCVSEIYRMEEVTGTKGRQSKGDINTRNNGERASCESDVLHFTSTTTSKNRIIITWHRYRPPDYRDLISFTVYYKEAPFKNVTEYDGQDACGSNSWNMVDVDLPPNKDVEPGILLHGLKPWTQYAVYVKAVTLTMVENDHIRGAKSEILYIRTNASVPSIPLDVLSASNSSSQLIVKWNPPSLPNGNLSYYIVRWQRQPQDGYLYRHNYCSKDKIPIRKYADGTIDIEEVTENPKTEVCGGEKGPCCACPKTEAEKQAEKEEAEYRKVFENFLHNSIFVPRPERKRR
Sequence (P08069 741-1367, chain 2 of 2): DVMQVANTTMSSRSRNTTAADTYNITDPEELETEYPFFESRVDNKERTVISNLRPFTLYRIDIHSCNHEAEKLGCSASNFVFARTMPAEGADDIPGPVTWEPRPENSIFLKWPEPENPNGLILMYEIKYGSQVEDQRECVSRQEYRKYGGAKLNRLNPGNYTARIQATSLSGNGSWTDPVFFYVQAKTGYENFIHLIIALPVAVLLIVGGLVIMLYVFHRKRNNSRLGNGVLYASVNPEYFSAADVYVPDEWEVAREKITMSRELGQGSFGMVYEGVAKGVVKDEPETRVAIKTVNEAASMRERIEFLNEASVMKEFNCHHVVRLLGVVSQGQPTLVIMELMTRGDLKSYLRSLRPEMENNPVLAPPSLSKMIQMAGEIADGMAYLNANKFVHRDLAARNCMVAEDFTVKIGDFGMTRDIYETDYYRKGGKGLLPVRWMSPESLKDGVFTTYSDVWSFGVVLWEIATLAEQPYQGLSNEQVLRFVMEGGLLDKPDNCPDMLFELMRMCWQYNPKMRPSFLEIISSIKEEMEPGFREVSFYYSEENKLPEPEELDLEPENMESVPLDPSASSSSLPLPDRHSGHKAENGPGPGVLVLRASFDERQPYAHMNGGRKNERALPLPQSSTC

| Binder | inhibition of IGF-1 and IGF-2 mediated IGF-1R receptor phosphorylation, EC50 |
| --- | --- |
| B1 | < 1 nM |
| B2 | < 1 nM |
| B3 | < 1 nM |
